Test results reported in US10494417B2, “Peptide inhibitors of BCR-ABL oligomerization” (University of Utah Research Foundation, priority 2014, dated 2019).
“Also recorded” adds a separate entry of the source.

Experiments:
Assay type in all cases: cell-based, mouse
[1] = test system: Ba/F3 cells expressing BCR-ABL1E255V/T315I; experiment: Proliferation of transfected Ba/F3 BCR-ABL1 E255V/T315I cells (MTS assay); settings: MTS assay at 72 and 96 h, CCmut3 vs EV
Procedure: Stable recombinant Ba/F3 cells transduced with wild type p210 BCR-ABL1 (Daley, G. Q., et al. (1991) Proc. Natl. Acad. Sci. U.S.A. 88, 11335-11338), the kinase domain mutants p210^T315I p210^[…], or the compound mutant p210^E255V/T315I were as previously described (La Rosee, P., et al. (2002) Cancer Res. 62, 7149-7153; O'Hare, T., et al. (2004) Blood 104, 2532-2539). These cells were cultured in RPMI with 10% FBS, 1% penicillin, streptomycin, glutamine, and 0.1% gentamycin (RPMI1640). Additionally 0.1% MycoZap™ (Lonza Bio, Basel, Switzerland) was added to prevent mycoplasma contamination. […]
Cell proliferation was assessed using the CellTiter 96® AQueous One Solution Cell Proliferation Assay (MTS assay, Promega) according to manufacturer instructions. […] In some experiments, cell proliferation was assessed using a Neubauer chamber and trypan blue dye exclusion. […]
Cell proliferation was assessed using a […] viability assay (MTS assay) utilizing CellTiter 96® AQueous One Solution Cell Proliferation Assay (Promega) according to manufacturer instructions. […] Cell growth was assessed by MTS assay at 72 and 96 h. […] In patient sample experiments, cell proliferation was assessed by trypan blue exclusion.

parental Ba/F3 cells = experiment: Colony forming assay of transfected parental Ba/F3 cells; settings: CCmut3 vs EV
Procedure: (§1) Both EGFP and EGFP-CC^mut3 were transfected into separate groups of cells on day 0. One day following transfection, 1.0×10^6 cells per treatment group were collected and re-suspended in 1.0 mL of PBS. Through serial dilutions, 1.0×10^3 cells in IMDM (Isocove's modified Dulbecco's media) with 2% FBS were seeded into methylcellulose medium in the absence of cytokines (MethoCult H4230 for K562 cells and MethoCult M3234 for p210 and p210-T315I cells) or in the presence of cytokines (MethoCult GF M3434 for parental Ba/F3 cells). Ponatinib was then added in the correct molar amounts (0, 100 pM, 1 nM, or 10 nM) to the methylcellulose medium. Colonies formed were counted after 7 days of incubation. All reagents were purchased from Stem Cell Technologies, Vancouver, BC, Canada. Assay was run three separate times (n=3) in duplicate.
Following selection of transfected cells by cell sorting, viable cells were enumerated and seeded into methylcellulose as described previously (Dixon, A. S., et al. (2011) J. Biol. Chem. 286, 27751-27760). Briefly, mCherry-positive Ba/F3 cells were re-suspended in IMDM with 2% FBS (Stem Cell Technologies) at a concentration of 10,000 cells/mL. […] Colonies were counted 7 days later in an area of […] per dish. […]

Ba/F3-p210-T315I cells = experiment: Colony forming assay of Ba/F3 BCR-ABL1 T315I cells; settings: for colony formation, in words: CCmut3 gene delivery (transfection; b502 lentiviral infection) vs EV; for reduction in CFCs / colony forming ability: CCmut3 vs EV
Procedure: as §1
Briefly, mCherry-positive Ba/F3 cells were re-suspended in IMDM with 2% FBS (Stem Cell Technologies) at a concentration of 10,000 cells/mL. Three hundred microliters of this dilution was added to 3 mL of Methocult media (M3434—Ba/F3 p210 wild-type and mutant lines or M3234—Ba/F3 parental, Stem Cell Technologies). Approximately 1100 cells, or 1.2 mL, were seeded per dish in duplicate for each transfection. Colonies were counted 7 days later in an area of 100 μm^2 per dish.
All cells were plated with or without the indicated TKI in three or more independent experiments. Plates were incubated at 37° C. in a 5% CO2 humidified incubator. Colonies were counted 7-14 days later in an area of 50 μm2 per dish using an inverted microscope.

B1: CCmut3: modified Bcr-Abl coiled-coil domain (residues 1-72) with mutations C38A, K39E, S41R, L45D, E48R, Q60E (protein)
chain: MVDPVGFAEAWKAQFPDSEPPRMELRSVGDIEQELERAEARIRRDEQRVNQERFRMIYLETLLAKEKKSYDR
proliferation, in words [1]: small yet significant growth reduction at 96 h but not 72 h; also recorded: significantly reduced proliferation of compound mutant cells at 96 h | proliferation, in words ([1]; listed as CC^mut3): significant growth reduction at 96 h; also recorded: smaller yet significant reduction in proliferation at 96 h | colony formation, in words (parental Ba/F3 cells): not affected; also recorded: no effect on parental Ba/F3 controls | colony formation, in words (parental Ba/F3 cells; listed as CC^mut3): not affected; also recorded: no difference between treatment groups | reduction of transformative ability compared to EGFP control (Ba/F3-p210-T315I cells; CC^mut3 alone, Ba/F3-p210-T315I): ~40% | colony formation, in words (Ba/F3-p210-T315I cells): significantly fewer colonies per unit area | colony formation, in words (Ba/F3-p210-T315I cells; listed as CC^mut3): Inhibition in colony formation | reduction in CFCs / colony forming ability (Ba/F3-p210-T315I cells): > 10 fold | reduction in CFCs / colony forming ability (Ba/F3-p210-T315I cells; listed as CC^mut3): more than 10 fold
